{"source": "patent US7393946", "about": "“Method of modulating metabolite biosynthesis in recombinant cells” (Rijksuniversiteit Leiden)", "key": {"ORCA-1": {"target": "ORCA-1 (Catharanthus roseus)", "sequence (chain, as listed by the source)": "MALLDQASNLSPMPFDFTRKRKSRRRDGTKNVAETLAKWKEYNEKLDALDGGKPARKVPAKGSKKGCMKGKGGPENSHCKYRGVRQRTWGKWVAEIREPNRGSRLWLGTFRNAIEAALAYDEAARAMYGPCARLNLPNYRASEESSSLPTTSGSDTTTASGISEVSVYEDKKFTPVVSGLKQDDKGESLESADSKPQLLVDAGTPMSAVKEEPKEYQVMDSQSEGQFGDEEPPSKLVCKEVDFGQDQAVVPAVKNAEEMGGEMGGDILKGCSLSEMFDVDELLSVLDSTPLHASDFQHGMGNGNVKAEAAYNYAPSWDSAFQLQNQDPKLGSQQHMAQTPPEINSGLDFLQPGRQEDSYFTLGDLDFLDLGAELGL", "experiment": "cell_activity; within Str1 BH promoter, GUS/CAT, C. roseus cells"}, "ORCA-2": {"target": "ORCA-2 (Catharanthus roseus)", "sequence (chain, as listed by the source)": "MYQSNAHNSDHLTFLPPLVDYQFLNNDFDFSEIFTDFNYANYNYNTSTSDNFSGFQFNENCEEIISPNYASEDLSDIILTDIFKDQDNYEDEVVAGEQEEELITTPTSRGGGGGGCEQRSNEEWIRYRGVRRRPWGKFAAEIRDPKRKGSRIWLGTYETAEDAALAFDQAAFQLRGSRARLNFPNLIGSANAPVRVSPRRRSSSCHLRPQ", "experiment": "cell_activity; within Str1 BH promoter, GUS/CAT, C. roseus cells"}}}
{"binder": "RV region of Str1 promoter (dsDNA) DNA 1: GTACATCACTCTTAGACCGCCTTCTTTGAAAGTGATTTCCCTTGGACC DNA 2: GGTCCAAGGGAAATCACTTTCAAAGAAGGCGGTCTAAGAGTGATGTAC", "values": [{"measurement": "activity", "setting": "ORCA-1", "result": 1.6, "unit": "fold induction"}, {"measurement": "activity", "setting": "ORCA-2", "result": 3.3, "unit": "fold induction"}]}
